From patent publication US7294753 (Biogen, dated 2007) come the findings set out here.

Assay [1] concerns the target T1, human macrophage migration inhibitory factor (MIF) (human, UniProt P14174 2-115). The assay is described as follows: cell-based or functional assay.
Assay [2] deals with T1, human macrophage migration inhibitory …. The assay is described as follows: cell-based or functional assay. This is another data set of the same source.
For assay [3] the target is unchanged. The assay is described as follows: cell-based or functional assay. This is another data set of the same source.
Assay [4] shares this target. The assay is described as follows: column 'Binds Human MIF'; method not stated.
Assay [5] has the same target. The assay is described as follows: column 'Binds Human MIF'; method not stated. The source holds these as a separate data set.
The target is the same in assay [6]. Put plainly: row 'human MIF Kd < 50 nm'; method not stated.

Like-named read-outs stand apart in the source and are kept apart here.

T1 sequence (P14174 2-115 limits assumed): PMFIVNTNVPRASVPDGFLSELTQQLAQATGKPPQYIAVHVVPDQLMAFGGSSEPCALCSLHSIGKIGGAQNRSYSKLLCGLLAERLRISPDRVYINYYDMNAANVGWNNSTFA

B1: anti-MIF monoclonal antibody 10B11-3 (antibody, V domains shown)
VH: EVQLQQSGPELVKPGASVRISCKTSGYTITEYTMHWMKQSHEKSLEWIGGITPNTGVLSDNQKFRGKATLTVDKSSNTAYMELRSLTSADSAVYYCARRGNNYYGSSPWFAYWGQGTLVTVSA
VL: DIQMTQSPASLSVSVGETVTITCRASENIYSNLAWYQQKQGKSPQLLVYAATNLADGVPSRFSGSGSGTQYSLNIYSLQPEDFGSYYCQHFWGTPYTFGGGTKLEIKR
notes: Mouse hybridoma antibody from a MIF knockout mouse, purified from ascites; also called Mab 10B11-3; 1OB11-3
A word on the Kd: it is the constant that tells how readily two partners part at equilibrium. For B1, the “% MIF PPT Activity” value in assay [1] and in assay [2] was 136% each time. For the same molecule, the “% MIF PPt Activity” value in assay [3] was found to be 136%. In addition, the Kd in assay [4], in assay [5] and in assay [6] was below 0.1 nM throughout.

B2: anti-MIF monoclonal antibody 22F11-6 (antibody, V domains shown)
VH: EVKLEESGGGLVQPGGSMKLSCAASGFTFGDAWMYWVRQSPEKGLEWVAEIRSKAHNHATYYAESVKGRFTISRDDSKSSVYLQMSSLRAEDTGIYYCTSHHYGSSWYFDVWGAGTTVTVSS
VL: DIQMTQSPASLSASVGETVTITCRASENIYSYLTWFQQKQGKSPQLLVYDAKTLAEGVPSSFSGSGSGTQFSLKIISLQPEHFGSYYCQHHYGRPYTFGGGTKLEIKR
notes: Mouse hybridoma antibody from a MIF knockout mouse, purified from ascites; also called Mab 22F11-6
Turning to B2, the “% MIF PPT Activity” value in assay [1] and in assay [2] was 65% each time. Moreover, the “MIF Stimulated SRE Transcription (% MIF Activity), 10 µg mab/ml” value in assay [2] and in assay [3] was 42% in each case. In addition, in assay [3], the “% MIF PPt Activity” value came out at 65%. Besides, the Kd in assay [4], in assay [5] and in assay [6] was below 0.1 nM throughout.

B3: anti-MIF monoclonal antibody 29B12-1 (antibody, V domains shown)
VH: EVKLVESGGGSVQPGGSLKLSCATSGFIFSDYYMYWVRQTPEKRLEWVAYISIGSGNTYYPDTVKGRFTISRDIAKNTLYLQMSRLKSEDTAMYYCVRGRLRFLFDYAMDYWGQGTSVTVSS
VL: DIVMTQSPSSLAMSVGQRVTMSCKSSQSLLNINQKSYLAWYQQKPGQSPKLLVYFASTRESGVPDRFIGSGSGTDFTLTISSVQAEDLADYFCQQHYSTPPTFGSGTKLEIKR
For B3, in assay [1], the “% MIF PPT Activity” value amounted to 146%. In assay [2], the “% MIF PPT Activity” value was determined as 146% and the “MIF Stimulated SRE Transcription (% MIF Activity), 10 µg mab/ml” value was 25%. In assay [3], the “% MIF PPt Activity” value stood at 146% and the “MIF Stimulated SRE Transcription (% MIF Activity), 10 µg mab/ml” value was determined as 25%.

B4: anti-MIF monoclonal antibody 33G7-9 (antibody, V domains shown)
VH: DVQLQESGPDLVKPSQSLSLTCSVTGYSITSGYYWNWIRQFPGNKLEWVGYLSYDGSKSHNPSLRNRISITRDPSKNQFFLKLNSVTTEDTATYYCARGGKIFYGSSYDPFAYWGQGTLVTVSS
VL: DIQMTQSPASLSASVGETVTITCRASENIFNYLSWYQQKQGKSPQLLVYNVKTLTDGVPSRFSGSGSGTQFSLKINSLQPEDFGSYYCQHHYDTPYTFGRGTKLEIKR
Turning to B4, in assay [1], the “% MIF PPT Activity” value worked out at 67%. For the same molecule, in assay [2], the “% MIF PPT Activity” value is 67% and the “MIF Stimulated SRE Transcription (% MIF Activity), 10 µg mab/ml” value worked out at 5%. In assay [3], the “% MIF PPt Activity” value came to 67% and the “MIF Stimulated SRE Transcription (% MIF Activity), 10 µg mab/ml” value turned out to be 5%.

B5: anti-MIF monoclonal antibody 19B11-7 (antibody, V domains shown)
VH: QIQLVQSGPELKKPGETVKISCKASGYSFRNYGMNWVSQPPGKGLEWMGWINTYTGEPTYADDFKGRFAFSLDTSASTAYLTINNLKNEDTATYFCARSNYGNYFDYWGQGTTLTVSA
VL: NIVLTQSPASLALSLGQRATISCRTSESVDSYASSFMHWYQQKPGQSPKLLIYLASNLESGVPARFSGSGSRTDFTLTIDPVEADDAATYYCQQSNEDPRTFGGGTQLEIKR
notes: Mouse hybridoma antibody from a MIF knockout mouse, purified from ascites
As to B5, the “% MIF PPT Activity” value in assay [1] and in assay [2] was 0% each time. Besides, the “MIF Stimulated SRE Transcription (% MIF Activity), 10 µg mab/ml” value in assay [2] and in assay [3] was 29% each time. Moreover, the “% MIF PPt Activity” value in assay [3] came to 0%. The Kd in assay [4] and in assay [5] was below 0.1 nM throughout.

B6: anti-MIF monoclonal antibody 6B5-5 (antibody, V domains shown)
VH: DVQLQESGPGLVKPSQSLSLTCTVTGSSITSDYAWHWIRQFPGNKLEWMGYISFSGSTGYNPSLKSRFSITRDTSKNQFFLQLNSVTTEDTATYYCAREAYGYDVGYFDYWGQGTTLTVSS
VL: QIVLTQSPAIMSAFPGEKVTITCSASSSVSYMHWFQQKPGTSPKLWIYGTSNLASGVPVRFSGSGSGTSYSLTISRMEAEDAATYYCQQRSSYPWTFGGGTKLEIKR
For the molecule B6, the “% MIF PPT Activity” value in assay [1] is 82%. In assay [2], the “% MIF PPT Activity” value was 82% and the “MIF Stimulated SRE Transcription (% MIF Activity), 10 µg mab/ml” value came out at 36%. For the same molecule, in assay [3], the “% MIF PPt Activity” value came to 82% and the “MIF Stimulated SRE Transcription (% MIF Activity), 10 µg mab/ml” value is 36%.
